Results as given in the supplement of paper PMC11316812.
± gives the standard deviation of the averaged measurements.

What was measured:
[1] = test system: hTERT-HMEC; assay: percentage of EdU-negative (G0-arrested) nuclei per well, 72 h; higher = more G0 arrest; conditions: reference: sequence is the full UniProt precursor, the tested protein was the secreted form or ectodomain
[2] = test system: MCF7; assay: as above; conditions: reference: sequence is the full UniProt precursor, the tested protein was the secreted form or ectodomain
[3] = protein concentration 0.0205 µM
[4] = protein concentration 0.00925 µM
[5] = protein concentration 0.0925 µM
[6] = protein concentration 0.0257143 µM
[7] = protein concentration 0.257143 µM
[8] = protein concentration 0.03125 µM
[9] = protein concentration 0.3125 µM
[10] = protein concentration 0.009215 µM
[11] = protein concentration 0.09215 µM
[12] = protein concentration 0.0225 µM
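Also: secreted proteins added to cultured cells, EdU pulse at the end, nuclei found by Hoechst imaging, EdU status from nuclear versus surrounding ring intensity ratio, PBS as neutral control.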

Chain of Q6UXN8 (chain, as listed by the source): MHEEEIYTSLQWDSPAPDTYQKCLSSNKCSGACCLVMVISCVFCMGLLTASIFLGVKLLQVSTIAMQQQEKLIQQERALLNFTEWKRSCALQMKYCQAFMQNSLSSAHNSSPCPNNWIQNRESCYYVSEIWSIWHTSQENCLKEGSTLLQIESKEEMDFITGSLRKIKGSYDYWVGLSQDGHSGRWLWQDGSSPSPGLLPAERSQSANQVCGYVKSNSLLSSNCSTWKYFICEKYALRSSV

MPGPRVWGKYLWRSPHSKGCPGAMWWLLLWGVLQACPTRGSVLLAQELPQQLTSPGYPEPYGKGQESSTDIKAPEGFAVRLVFQDFDLEPSQDCAGDSVTISFVGSDPSQFCGQQGSPLGRPPGQREFVSSGRSLRLTFRTQPSSENKTAHLHKGFLALYQTVAVNYSQPISEASRGSEAINAPGDNPAKVQNHCQEPYYQAAAAGALTCATPGTWKDRQDGEEVLQCMPVCGRPVTPIAQNQTTLGSSRAKLGNFPWQAFTSIHGRGGGALLGDRWILTAAHTIYPKDSVSLRKNQSVNVFLGHTAIDEMLKLGNHPVHRVVVHPDYRQNESHNFSGDIALLELQHSIPLGPNVLPVCLPDNETLYRSGLLGYVSGFGMEMGWLTTELKYSRLPVAPREACNAWLQKRQRPEVFSDNMFCVGDETQRHSVCQGDSGSVYVVWDNHAHHWVATGIVSWGIGCGEGYDFYTKVLSYVDWIKGVMNGKN [Q9NZP8]
percentage of EdU-negative [1, 3]: 6.35 ± 0.51%
percentage of EdU-negative ([1]; protein concentration 0.205 µM): 7.52 ± 1.6%
percentage of EdU-negative [2, 3]: 25.9 ± 0.29%
percentage of EdU-negative ([2]; protein concentration 0.205 µM): 26.4 ± 0.027%

MLQGPGSLLLLFLASHCCLGSARGLFLFGQPDFSYKRSNCKPIPANLQLCHGIEYQNMRLPNLLGHETMKEVLEQAGAWIPLVMKQCHPDTKKFLCSLFAPVCLDDLDETIQPCHSLCVQVKDRCAPVMSAFGFPWPDMLECDRFPQDNDLCIPLASSDHLLPATEEAPKVCEACKNKNDDDNDIMETLCKNDFALKIKVKEITYINRDTKIILETKSKTIYKLNGVSERDLKKSVLWLKDSLQCTCEEMNDINAPYLVMGQKQGGELVITSVKRWQKGQREFKRISRSIRKLQC [Q96HF1]
percentage of EdU-negative [1, 4]: 5.51 ± 0.23%
percentage of EdU-negative [1, 5]: 5.34 ± 0.013%
percentage of EdU-negative [2, 4]: 21.9 ± 2.5%
percentage of EdU-negative [2, 5]: 26.3 ± 1.9%

MKSLTWILGLWALAACFTPGESQRGPRGPYPPGPLAPPQPFGPGFVPPPPPPPYGPGRIPPPPPAPYGPGIFPPPPPQP
percentage of EdU-negative [1, 6]: 5.18 ± 0.72%
percentage of EdU-negative [1, 7]: 6.25 ± 0.39%
percentage of EdU-negative [2, 6]: 26.1 ± 0.69%
percentage of EdU-negative [2, 7]: 29.6 ± 2.1%

MLFSALLLEVIWILAADGGQHWTYEGPHGQDHWPASYPECGNNAQSPIDIQTDSVTFDPDLPALQPHGYDQPGTEPLDLHNNGHTVQLSLPSTLYLGGLPRKYVAAQLHLHWGQKGSPGGSEHQINSEATFAELHIVHYDSDSYDSLSEAAERPQGLAVLGILIEVGETKNIAYEHILSHLHEVRHKDQKTSVPPFNLRELLPKQLGQYFRYNGSLTTPPCYQSVLWTVFYRRSQISMEQLEKLQGTLFSTEEEPSKLLVQNYRALQPLNQRMVFASFIQAGSSYTTGEMLSLGVGILVGCLCLLLAVYFIARKIRKKRLENRKSVVFTSAQATTEA [Q9ULX7]
percentage of EdU-negative [1, 8]: 4.94 ± 0.17%
percentage of EdU-negative [1, 9]: 4.94 ± 0.42%
percentage of EdU-negative [2, 8]: 24.3 ± 0.34%
percentage of EdU-negative [2, 9]: 24.31 ± 0.24%

MFWKLSLSLFLVAVLVKVAEARKNRPAGAIPSPYKDGSSNNSERWQHQIKEVLASSQEALVVTERKYLKSDWCKTQPLRQTVSEEGCRSRTILNRFCYGQCNSFYIPRHVKKEEESFQSCAFCKPQRVTSVLVELECPGLDPPFRLKKIQKVKQCRCMSVNLSDSDKQ [Q9H772]
percentage of EdU-negative [1, 10]: 5.28 ± 0.078%
percentage of EdU-negative [1, 11]: 5.14 ± 0.38%
percentage of EdU-negative [2, 10]: 22.3 ± 1.6%
percentage of EdU-negative [2, 11]: 27.2 ± 0.92%

Q6UXN8
percentage of EdU-negative [1, 12]: 4.27 ± 1%
percentage of EdU-negative ([1]; protein concentration 0.225 µM): 4.93 ± 0.51%
percentage of EdU-negative [2, 12]: 24.9 ± 2.2%
percentage of EdU-negative ([2]; protein concentration 0.225 µM): 25.2 ± 1.4%

MESRGPLATSRLLLLLLLLLLRHTRQGWALRPVLPTQSAHDPPAVHLSNGPGQEPIAVMTFDLTKITKTSSSFEVRTWDPEGVIFYGDTNPKDDWFMLGLRDGRPEIQLHNHWAQLTVGAGPRLDDGRWHQVEVKMEGDSVLLEVDGEEVLRLRQVSGPLTSKRHPIMRIALGGLLFPASNLRLPLVPALDGCLRRDSWLDKQAEISASAPTSLRSCDVESNPGIFLPPGTQAEFNLRDIPQPHAEPWAFSLDLGLKQAAGSGHLLALGTPENPSWLSLHLQDQKVVLSSGSGPGLDLPLVLGLPLQLKLSMSRVVLSQGSKMKALALPPLGLAPLLNLWAKPQGRLFLGALPGEDSSTSFCLNGLWAQGQRLDVDQALNRSHEIWTHSCPQSPGNGTDASH
percentage of EdU-negative [1, 8]: 4.94 ± 0.58%
percentage of EdU-negative [1, 9]: 17.6 ± 1.6%
percentage of EdU-negative [2, 8]: 21.8 ± 3%
percentage of EdU-negative [2, 9]: 23.55 ± 0.15%

MILIPRMLLVLFLLLPILSSAKAQVNPAICRYPLGMSGGQIPDEDITASSQWSESTAAKYGRLDSEEGDGAWCPEIPVEPDDLKEFLQIDLHTLHFITLVGTQGRHAGGHGIEFAPMYKINYSRDGTRWISWRNRHGKQVLDGNSNPYDIFLKDLEPPIVARFVRFIPVTDHSMNVCMRVELYGCVWLDGLVSYNAPAGQQFVLPGGSIIYLNDSVYDGAVGYSMTEGLGQLTDGVSGLDDFTQTHEYHVWPGYDYVGWRNESATNGYIEIMFEFDRIRNFTTMKVHCNNMFAKGVKIFKEVQCYFRSEASEWEPNAISFPLVLDDVNPSARFVTVPLHHRMASAIKCQYHFADTWMMFSEITFQSDAAMYNNSEALPTSPMAPTTYDPMLKVDDSNTRILIGCLVAIIFILLAIIVIILWRQFWQKMLEKASRRMLDDEMTVSLSLPSDSSMFNNNRSSSPSEQGSNSTYDRIFPLRPDYQEPSRLIRKLPEFAPGEEESGCSGVVKPVQPSGPEGVPHYAEADIVNLQGVTGGNTYSVPAVTMDLLSGKDVAVEEFPRKLLTFKEKLGEGQFGEVHLCEVEGMEKFKDKDFALDVSANQPVLVAVKMLRADANKNARNDFLKEIKIMSRLKDPNIIHLLAVCITDDPLCMITEYMENGDLNQFLSRHEPPNSSSSDVRTVSYTNLKFMATQIASGMKYLSSLNFVHRDLATRNCLVGKNYTIKIADFGMSRNLYSGDYYRIQGRAVLPIRWMSWESILLGKFTTASDVWAFGVTLWETFTFCQEQPYSQLSDEQVIENTGEFFRDQGRQTYLPQPAICPDSVYKLMLSCWRRDTKNRPSFQEIHLLLLQQGDE
percentage of EdU-negative [1, 12]: 4.96 ± 0.44%
percentage of EdU-negative ([1]; protein concentration 0.225 µM): 5.43 ± 1.3%
percentage of EdU-negative [2, 12]: 26.1 ± 1%
percentage of EdU-negative ([2]; protein concentration 0.225 µM): 25.9 ± 1.3%
